What was measured:
Experiment in all cases: SPR; Biacore T200; antibody captured on anti-human Fc (CM5 chip); CD30-MBP flowed at 0, 2, 20 nM (T426: 0, 20, 200 nM), contact 90 s, dissociation 300 s; fit to a 1:1 binding mode; rough-level analysis
Conditions in all cases: both partners purified
BpT10-104 = molecular target: T1, BpT10-104
T1 construct: AC10 Fv, N side; T104 Fv, C side; one Fab of each Fv; knobs-into-holes Fc; source: Expi293 fragments joined by intein-mediated protein trans-splicing, purified (Superdex 200 Increase); copies: + + +
T1 sequence (chain, as listed by the source, chain 1 of 4): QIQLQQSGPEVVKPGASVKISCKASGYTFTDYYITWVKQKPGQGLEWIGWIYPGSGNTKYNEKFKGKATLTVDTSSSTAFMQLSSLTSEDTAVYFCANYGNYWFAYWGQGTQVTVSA
T1 sequence (chain, as listed by the source, chain 2 of 4): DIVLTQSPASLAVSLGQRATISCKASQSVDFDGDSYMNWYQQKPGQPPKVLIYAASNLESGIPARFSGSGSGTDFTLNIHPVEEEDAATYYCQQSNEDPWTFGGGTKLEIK
T1 sequence (chain, as listed by the source, chain 3 of 4): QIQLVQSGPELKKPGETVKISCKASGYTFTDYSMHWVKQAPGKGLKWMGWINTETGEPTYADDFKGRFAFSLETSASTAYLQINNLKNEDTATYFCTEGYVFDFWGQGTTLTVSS
T1 sequence (chain, as listed by the source, chain 4 of 4): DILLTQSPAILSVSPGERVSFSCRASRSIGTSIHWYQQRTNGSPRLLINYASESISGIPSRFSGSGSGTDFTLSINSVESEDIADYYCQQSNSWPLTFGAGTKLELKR

BpT107-104 = molecular target: T2, BpT107-104
T2 construct: T107 Fv, N side; T104 Fv, C side; one Fab of each Fv; knobs-into-holes Fc; source: Expi293 fragments joined by intein-mediated protein trans-splicing, purified (Superdex 200 Increase); copies: + + +
T2 sequence (chain, as listed by the source, chain 1 of 4): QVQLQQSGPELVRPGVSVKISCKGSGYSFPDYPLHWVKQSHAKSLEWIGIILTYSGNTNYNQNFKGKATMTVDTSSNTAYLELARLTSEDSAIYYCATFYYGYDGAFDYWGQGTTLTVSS
T2 sequence (chain, as listed by the source, chain 2 of 4): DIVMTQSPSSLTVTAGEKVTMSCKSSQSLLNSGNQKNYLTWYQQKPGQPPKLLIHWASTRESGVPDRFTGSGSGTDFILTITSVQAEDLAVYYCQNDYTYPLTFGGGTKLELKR

BpT105-107 = molecular target: T3, BpT105-107
T3 construct: T105 Fv, N side; T107 Fv, C side; one Fab of each Fv; knobs-into-holes Fc; source: Expi293 fragments joined by intein-mediated protein trans-splicing, purified (Superdex 200 Increase); copies: + + +
T3 sequence (chain, as listed by the source, chain 1 of 4): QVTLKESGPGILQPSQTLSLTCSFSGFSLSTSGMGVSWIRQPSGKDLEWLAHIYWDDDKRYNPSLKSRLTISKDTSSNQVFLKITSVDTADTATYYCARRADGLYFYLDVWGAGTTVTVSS
T3 sequence (chain, as listed by the source, chain 2 of 4): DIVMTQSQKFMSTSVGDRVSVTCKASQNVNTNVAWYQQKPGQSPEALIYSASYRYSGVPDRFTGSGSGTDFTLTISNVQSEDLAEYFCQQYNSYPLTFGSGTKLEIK

BpT104-25 = molecular target: T4, BpT104-25
T4 construct: T104 Fv, N side; T25 Fv, C side; one Fab of each Fv; knobs-into-holes Fc; source: Expi293 fragments joined by intein-mediated protein trans-splicing, purified (Superdex 200 Increase); copies: + + +
T4 sequence (chain, as listed by the source, chain 3 of 4): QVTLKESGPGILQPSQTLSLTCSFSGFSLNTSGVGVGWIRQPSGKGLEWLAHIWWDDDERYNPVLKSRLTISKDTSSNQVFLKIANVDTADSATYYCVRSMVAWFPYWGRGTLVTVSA
T4 sequence (chain, as listed by the source, chain 4 of 4): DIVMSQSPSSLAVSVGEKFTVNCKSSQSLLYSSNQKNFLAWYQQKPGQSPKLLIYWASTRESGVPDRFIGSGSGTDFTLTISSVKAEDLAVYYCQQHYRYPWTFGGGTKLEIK

BpT10-6 = molecular target: T5, BpT10-6
T5 construct: AC10 Fv, N side; T6 Fv, C side; one Fab of each Fv; knobs-into-holes Fc; source: Expi293 fragments joined by intein-mediated protein trans-splicing, purified (Superdex 200 Increase); copies: + + +
T5 sequence (chain, as listed by the source, chain 3 of 4): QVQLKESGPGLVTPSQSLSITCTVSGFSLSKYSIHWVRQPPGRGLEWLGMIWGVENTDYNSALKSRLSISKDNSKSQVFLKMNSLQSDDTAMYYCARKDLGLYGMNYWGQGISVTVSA
T5 sequence (chain, as listed by the source, chain 4 of 4): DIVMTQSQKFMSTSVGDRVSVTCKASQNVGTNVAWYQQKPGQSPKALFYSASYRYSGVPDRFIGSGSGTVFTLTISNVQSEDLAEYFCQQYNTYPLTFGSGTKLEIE

BpT105-6 = molecular target: T6, BpT105-6
T6 construct: T105 Fv, N side; T6 Fv, C side; one Fab of each Fv; knobs-into-holes Fc; source: Expi293 fragments joined by intein-mediated protein trans-splicing, purified (Superdex 200 Increase); copies: + + +

BpT427-405 = molecular target: T7, BpT427-405
T7 construct: T427 Fv, N side; T405 Fv, C side; one Fab of each Fv; knobs-into-holes Fc; source: Expi293 fragments joined by intein-mediated protein trans-splicing, purified (Superdex 200 Increase); copies: + + +

BpT25-6 = molecular target: T8, BpT25-6
T8 construct: T25 Fv, N side; T6 Fv, C side; one Fab of each Fv; knobs-into-holes Fc; source: Expi293 fragments joined by intein-mediated protein trans-splicing, purified (Superdex 200 Increase); copies: + + +

BpT107-25 = molecular target: T9, BpT107-25
T9 construct: T107 Fv, N side; T25 Fv, C side; one Fab of each Fv; knobs-into-holes Fc; source: Expi293 fragments joined by intein-mediated protein trans-splicing, purified (Superdex 200 Increase); copies: + + +

BpT10-427 = molecular target: T10, BpT10-427
T10 construct: AC10 Fv, N side; T427 Fv, C side; one Fab of each Fv; knobs-into-holes Fc; source: Expi293 fragments joined by intein-mediated protein trans-splicing, purified (Superdex 200 Increase); copies: + + +
T10 sequence (chain, as listed by the source, chain 3 of 4): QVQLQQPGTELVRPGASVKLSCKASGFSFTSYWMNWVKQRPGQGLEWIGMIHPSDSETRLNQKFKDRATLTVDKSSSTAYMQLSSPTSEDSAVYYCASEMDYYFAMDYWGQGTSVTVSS
T10 sequence (chain, as listed by the source, chain 4 of 4): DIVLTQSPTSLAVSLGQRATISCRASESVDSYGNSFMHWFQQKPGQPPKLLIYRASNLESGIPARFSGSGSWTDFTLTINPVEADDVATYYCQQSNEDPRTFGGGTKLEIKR

BpT25-405 = molecular target: T11, BpT25-405
T11 construct: T25 Fv, N side; T405 Fv, C side; one Fab of each Fv; knobs-into-holes Fc; source: Expi293 fragments joined by intein-mediated protein trans-splicing, purified (Superdex 200 Increase); copies: + + +

BpT10-105 = molecular target: T12, BpT10-105
T12 construct: AC10 Fv, N side; T105 Fv, C side; one Fab of each Fv; knobs-into-holes Fc; source: Expi293 fragments joined by intein-mediated protein trans-splicing, purified (Superdex 200 Increase); copies: + + +

B1: Maltose-binding protein-fused CD30 (domain or fragment)
chain: FPQDRPFEDTCHGNPSHYYDKAVRRCCYRCPMGLFPTQQCPQRPTDCRKQCEPDYYLDEADRCTACVTCSRDDLVEKTPCAWNSSRVCECRPGMFCSTSAVNSCARCFFHSVCPAGMIVKFPGTAQKNTVCEPASPGVSPACASPENCKEPSSGTIPQAKPTPVSPATSSASTMPVRGGTRLAQEAASKLTRAPDSPSSVGRPSSDPGLSPTQPCPEGSGDCRKQCEPDYYLDEAGRCTACVSCSRDDLVEKTPCAWNSSRTCECRPGMICATSATNSCARCVPYPICAAETVTKPQDMAEKDTTFEAPPLGTQPDCN
modifications: Construct 1-336 includes signal peptide 1-18, taken as cleaved on secretion; C-terminal MBP carrier and His tag left out; disulfide-bonded, likely glycosylated (Expi293)
Question: B1 was tested. Which Kd (BpT10-104) did it give?
Answer: 0.26 nM

Question: And the Kd (BpT107-104)?
Answer: 0.4 nM

Question: What about the Kd (BpT105-107) of the same binder?
Answer: 0.26 nM

Question: What about the Kd (BpT104-25) of the same binder?
Answer: 0.5 nM

Question: And the Kd (BpT10-6)?
Answer: 0.27 nM

Question: What about the Kd (BpT105-6) of the same binder?
Answer: 0.37 nM

Question: What about the Kd (BpT427-405) of the same binder?
Answer: 0.31 nM

Question: And the Kd (BpT25-6)?
Answer: 0.46 nM

Question: And the Kd (BpT107-25)?
Answer: 0.87 nM

Question: And the Kd (BpT10-427)?
Answer: 0.58 nM

Question: What about the Kd (BpT25-405) of the same binder?
Answer: 0.91 nM

Question: What about the Kd (BpT10-105) of the same binder?
Answer: 0.066 nM

— PMC11826918, “Generation of antagonistic biparatopic anti-CD30 antibody from an agonistic antibody by precise epitope determination and utilization of structural characteristics of CD30 molecule” (Antibody Therapeutics, 2025)
